Where a chain is given by its changes, count along the chain named.

The values that follow come from patent US11833215B2, “CKIT antibody drug conjugates” (Novartis AG, priority 2014, dated 2023).

One assay concerns GIST cell lines. The settings on record: SR-1 as second therapeutic on Imatinib treated cells; cited from earlier work.
A further assay deals with Uke-1 cells. Put plainly: ADCC activity in vitro (Calcein release, NK3.3 effector cells). The format is cell-based. The following applies: unconjugated IgG1, effector to target ratio 20 to 1. Here is the method: The ability of the unconjugated anti-cKIT antibodies (NEG085, 20376) to mediate antibody dependent cellular cytotoxicity was determined versus Uke-1 cells (target cells; generously provided by Professor Walter Fiedler, University Hospital Eppendorf, Hamburg, Germany) in co-incubation with NK3.3 cells (killer cells or effector cells; kindly provided by Jacky Kornbluth from Saint Louis University). […] In order to calculate the antibody specific lysis of the target cells, a parallel incubation of target cells only without antibody or effector cells served as a baseline and negative control, whereas the positive control or maximal lysis or hundred percent specific lysis was determined by lysis of target cells only with a 1% Triton-X 100 solution. […] Following a co-incubation of target and effector cells, the microtiterplate was centrifuged and an aliquot of the supernatant fluid was transferred to another microtiterplate (96 well, flat-bottomed, black with clear bottom; (Corning Costar, catalog #3904, Tewksbury, MA) and the concentration of free Calcein in solution was determined with a fluorescence counter (Victor 3 ® multilabel counter, Perkin Elmer, Waltham, MA).

In a further assay the target is T1, human cKIT (Homo sapiens, UniProt P10721).
T1 construct: Human cKIT tr. variant 2 , residues 26-520-TAG; made in house; host or cells: HEK293 derived cell line 293FS, transient transfection
Put plainly: SPR (Biacore) affinity measurement. The format is binding. The settings on record: 25° C., 1:1 model. How it is done: (§1) Affinity of the antibodies to cKIT species orthologues and also to cKIT was determined using SPR technology using a Biacore® 2000 instrument (GE Healthcare, Pittsburgh, PA) and with CM5 sensor chips.
(§2) Briefly, HBS-P (0.01 M HEPES, pH 7.4, 0.15 M NaCl, 0.005% Surfactant P20) supplemented with 2% Odyssey® blocking buffer (Li-Cor Biosciences, Lincoln, NE) was used as the running buffer for all the experiments. The immobilization level and analyte interactions were measured by response unit (RU). Pilot experiments were performed to test and confirm the feasibility of the immobilization of the anti-human Fc antibody (Catalog number BR100839, GE Healthcare, Pittsburgh, PA) and the capture of the test antibodies.
(§3) For kinetic measurements, the experiments were performed in which the antibodies were captured to the sensor chip surface via the immobilized anti-human Fc antibody and the ability of the cKIT proteins to bind in free solution was determined. Briefly, 25 μg/ml of anti-human Fc antibody at pH 5 was immobilized on a CM5 sensor chip through amine coupling at flow rate of 5 μl/minute on all two flow cells to reach 10,500 RUs. 0.1-1 μg/ml of test antibodies were then injected at 10 μl/min for 1 minute. Captured levels of the antibodies were generally kept below 200 RUs. Subsequently, 3.125 −50 nM of cKIT receptor extracellular domains (ECD) were diluted in a 2-fold series and injected at a flow rate of 40 μl/min for 3 min over both reference and test flow cells. Table of tested ECDs is listed below (Table 6). Dissociation of the binding was followed for 10 min. After each injection cycle, the chip surface was regenerated with 3 M MgCl2 at 10 μl/min for 30 seconds.

For another assay, the target named is T2, mouse cKIT (Mus musculus, UniProt P05532).
T2 construct: cKIT receptor extracellular domains (ECD) were diluted in a 2-fold series
T2 sequence (P05532 25-527 limits assumed): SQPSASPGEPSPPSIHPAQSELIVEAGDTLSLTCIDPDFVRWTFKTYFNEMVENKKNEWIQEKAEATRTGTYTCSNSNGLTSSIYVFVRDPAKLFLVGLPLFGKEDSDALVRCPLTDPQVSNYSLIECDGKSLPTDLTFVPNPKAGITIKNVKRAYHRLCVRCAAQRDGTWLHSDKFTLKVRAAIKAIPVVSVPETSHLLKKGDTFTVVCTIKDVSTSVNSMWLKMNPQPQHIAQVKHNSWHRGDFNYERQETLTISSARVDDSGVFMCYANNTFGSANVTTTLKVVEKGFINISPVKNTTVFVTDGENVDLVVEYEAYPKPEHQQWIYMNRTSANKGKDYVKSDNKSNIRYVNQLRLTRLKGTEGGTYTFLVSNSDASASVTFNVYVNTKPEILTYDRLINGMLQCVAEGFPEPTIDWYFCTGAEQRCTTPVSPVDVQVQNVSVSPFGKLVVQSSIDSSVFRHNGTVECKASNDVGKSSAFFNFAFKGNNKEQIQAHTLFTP
Put plainly: SPR (Biacore) affinity measurement. Format: binding. The following applies: 25° C., 1:1 model. How it is done: as §1, §2, §3

Another assay has as its target rat cKIT. Put plainly: SPR (Biacore) affinity measurement. Format: binding. The settings on record: 25° C., 1:1 model. How it is done: as §1, §2, §3
A further assay addresses SCF binding to cKIT (Homo sapiens, UniProt P10721). Put plainly: competition assays using ELISA and FACS. (In general: An ELISA detects its analyte on a solid surface through an enzyme-linked reagent.)

T1 sequence (P10721 with tags, fused parts or gaps isoform P10721-2): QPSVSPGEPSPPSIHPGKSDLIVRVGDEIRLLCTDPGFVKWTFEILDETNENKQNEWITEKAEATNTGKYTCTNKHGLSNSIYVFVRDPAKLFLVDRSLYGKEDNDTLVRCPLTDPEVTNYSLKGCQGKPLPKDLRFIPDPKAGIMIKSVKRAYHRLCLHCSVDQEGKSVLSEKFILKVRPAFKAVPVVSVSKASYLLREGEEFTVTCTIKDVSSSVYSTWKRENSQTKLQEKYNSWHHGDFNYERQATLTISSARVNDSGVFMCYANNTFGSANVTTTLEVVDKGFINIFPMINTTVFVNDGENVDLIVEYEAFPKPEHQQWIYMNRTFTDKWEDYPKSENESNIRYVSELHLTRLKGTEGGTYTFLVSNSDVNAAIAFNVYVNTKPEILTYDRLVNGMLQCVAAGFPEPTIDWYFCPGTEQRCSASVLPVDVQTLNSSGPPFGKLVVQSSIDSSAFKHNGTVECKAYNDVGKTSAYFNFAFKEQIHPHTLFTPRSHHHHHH
rat cKIT, sequence (as listed by the source): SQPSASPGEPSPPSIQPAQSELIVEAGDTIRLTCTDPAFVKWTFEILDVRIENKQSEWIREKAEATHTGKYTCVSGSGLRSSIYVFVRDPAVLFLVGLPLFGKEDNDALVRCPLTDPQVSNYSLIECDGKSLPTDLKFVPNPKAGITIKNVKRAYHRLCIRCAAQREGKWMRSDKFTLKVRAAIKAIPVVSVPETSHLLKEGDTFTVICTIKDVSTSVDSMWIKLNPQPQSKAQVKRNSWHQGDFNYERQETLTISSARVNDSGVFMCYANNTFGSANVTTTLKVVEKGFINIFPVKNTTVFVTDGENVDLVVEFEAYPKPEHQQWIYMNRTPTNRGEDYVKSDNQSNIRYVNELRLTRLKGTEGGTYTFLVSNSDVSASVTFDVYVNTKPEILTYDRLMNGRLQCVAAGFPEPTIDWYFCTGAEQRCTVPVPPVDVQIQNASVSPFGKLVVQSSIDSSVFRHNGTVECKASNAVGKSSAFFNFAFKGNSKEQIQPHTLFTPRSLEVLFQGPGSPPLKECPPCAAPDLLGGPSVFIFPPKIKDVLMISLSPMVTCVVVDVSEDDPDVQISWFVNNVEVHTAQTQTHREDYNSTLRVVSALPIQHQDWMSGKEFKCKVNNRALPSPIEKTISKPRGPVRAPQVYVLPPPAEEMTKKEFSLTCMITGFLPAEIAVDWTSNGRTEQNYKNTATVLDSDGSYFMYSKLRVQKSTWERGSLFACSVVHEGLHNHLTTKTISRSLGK
SCF binding to cKIT, sequence (P10721 26-976): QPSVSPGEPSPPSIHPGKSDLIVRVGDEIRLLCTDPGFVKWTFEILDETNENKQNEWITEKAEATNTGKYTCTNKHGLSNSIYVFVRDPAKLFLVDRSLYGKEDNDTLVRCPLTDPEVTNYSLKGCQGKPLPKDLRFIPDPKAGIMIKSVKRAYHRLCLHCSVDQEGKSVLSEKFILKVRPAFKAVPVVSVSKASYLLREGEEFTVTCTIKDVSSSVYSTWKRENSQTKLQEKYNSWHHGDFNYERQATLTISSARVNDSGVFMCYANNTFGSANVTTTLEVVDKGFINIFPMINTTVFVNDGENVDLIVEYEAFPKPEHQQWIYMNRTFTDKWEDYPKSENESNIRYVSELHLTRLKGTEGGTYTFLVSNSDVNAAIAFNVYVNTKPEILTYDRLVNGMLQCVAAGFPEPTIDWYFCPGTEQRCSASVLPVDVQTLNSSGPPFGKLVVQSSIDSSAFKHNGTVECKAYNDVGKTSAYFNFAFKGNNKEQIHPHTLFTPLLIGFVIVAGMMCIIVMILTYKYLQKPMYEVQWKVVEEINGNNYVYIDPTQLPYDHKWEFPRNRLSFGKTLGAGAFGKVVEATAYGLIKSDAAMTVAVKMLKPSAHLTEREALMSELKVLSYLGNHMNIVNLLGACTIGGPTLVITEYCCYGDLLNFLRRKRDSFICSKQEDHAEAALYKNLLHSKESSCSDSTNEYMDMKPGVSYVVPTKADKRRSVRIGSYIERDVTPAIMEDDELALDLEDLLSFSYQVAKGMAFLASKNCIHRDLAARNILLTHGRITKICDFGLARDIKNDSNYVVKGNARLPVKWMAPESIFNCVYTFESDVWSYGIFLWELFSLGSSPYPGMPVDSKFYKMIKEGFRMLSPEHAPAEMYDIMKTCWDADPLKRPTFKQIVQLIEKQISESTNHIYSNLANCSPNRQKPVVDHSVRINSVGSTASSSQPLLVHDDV

`Cc1ccc(NC(=O)c2ccc(CN3CCN(C)CC3)cc2)cc1Nc1nccc(-c2cccnc2)n1` [imatinib]: the “proliferation of GIST cells” value in the assay with GIST cell lines was “significantly reduce proliferation”.
For MabCampath® [reference compound], the “ADCC killing of target cells” value with Uke-1 cells is “mediated ADCC killing”.

B1: NEG027: anti-cKIT antibody of Table 3, VH SEQ ID NO 64, VL SEQ ID NO 73 (antibody, listed as Homo sapiens, V domains shown)
VH: EVQLVESGGGLVQPGGSLRLSCAASGFTFSDYYMAWVRQAPGKGLEWVASINQNTGSTYYLDSVRGRFTISRDNAKNSLYLQMNSLRAEDTAVYYCARGDYYGTTYWYFDVWGQGTTVTVSS
VL: EIVMTQSPATLSLSPGERATLSCRASQDISNYLNWYQQKPGQAPRLLIYYTSRLQSGIPARFSGSGSGTDYTLTISSLEPEDFAVYYCQQGKKLWSFGGGTKVEIK
Take B1: the “Affinity human cKIT (nM)” value with human cKIT was “nanomolar level”. Further, the “Affinity mouse cKIT (nM)” value with mouse cKIT is recorded as “Not reactive”. In addition, the “Affinity to rat cKIT (nM)” value on rat cKIT is on record as “Not reactive”.

B2: NEG086: anti-cKIT antibody of Table 3, VH SEQ ID NO 100, VL SEQ ID NO 109 (antibody, listed as Homo sapiens, V domains shown)
VH: B1 VH with S50N, N54I, T55A, L61V, R65Q
VL: DIQMTQSPSSLSASVGDRVTITCRASQSISSYLNWYQQKPGKAPKLLIYYTSRLQSGVPSRFSGSGSGTDFTLTISSLQPEDFATYYCQQGRRLWSFGGGTKVEIK
Take B2: the “Affinity human cKIT (nM)” value in the assay with human cKIT is on record as “nanomolar level”. In addition, the “Affinity mouse cKIT (nM)” value with mouse cKIT is “Not reactive”. Further, on rat cKIT, the “Affinity to rat cKIT (nM)” value is recorded as “Not reactive”.

B3: NEG087: anti-cKIT antibody of Table 3, VH SEQ ID NO 118, VL SEQ ID NO 127 (antibody, listed as Homo sapiens, V domains shown)
VH: B1 VH
VL: B2 VL
On to B3, for which, in the assay with human cKIT, the “Affinity human cKIT (nM)” value was “nanomolar level”. For the same molecule, in the assay with mouse cKIT, the “Affinity mouse cKIT (nM)” value was “Not reactive”. In addition, the “Affinity to rat cKIT (nM)” value at rat cKIT is listed as “Not reactive”.

B4: NEG026: anti-cKIT antibody of Table 3, VH SEQ ID NO 46, VL SEQ ID NO 55 (antibody, listed as Homo sapiens, V domains shown)
VH: B1 VH with S50N, L61V, R65Q
VL: B1 VL
Regarding B4, the “Affinity mouse cKIT (nM)” value in the assay with mouse cKIT is listed as “Not reactive”. The “Affinity to rat cKIT (nM)” value at rat cKIT was “Not reactive”.

B5: 9P3: hybridoma derived anti-cKIT antibody, VH SEQ ID NO:9, VL SEQ ID NO:18 (antibody, listed as Homo sapiens, V domains shown)
VH: EVRLVESEGGLVQPRSSMKLSCTASGFTFSDYYMAWVRQVPEKGLEWVANINYDGSSTYYLDSLKSRFIISRDNAKNILYLQMSSLKSEDTATYYCARGDYYGTTYWYFDVWGTGTTVTVSS
VL: DIQMTQTTSSLSASLGDRVTISCRASQDISNYLNWYQQKPDGTVKLLIYYTSRLQSGVPSRFSGSGSGTDYSLTISNLEQEDIATYFCQQGKKLWSFGGGTKLEIKR
On to B5, for which, in the assay with human cKIT, the “Affinity human cKIT (nM)” value was “nanomolar level”. Moreover, the “Affinity mouse cKIT (nM)” value with mouse cKIT is reported as “Not reactive”. Further, the “Affinity to rat cKIT (nM)” value on rat cKIT is given as “Not reactive”. Further, in the assay with SCF binding to cKIT, the “blocking of SCF binding to cKIT” value was “partial blocking”.
